Measurements from patent US20220298237A1 (KEIO UNIVERSITY, published 2022).

B1: BC-A8 (Fab) (Fab, V domains shown)
VH: QTVKESGGRLVTPGAPLTLTCTVSRFSLSSYAMTWVRQAPGKGLEWIGIINNDGSSSTWYASWVKGRFTISKTSTTMDLKMTSLTTEDTATYFCARGGTSGYDIWGPGTLVTVSL
VL: AQGLTQTPSPVSAAVGGTVTINCQSSPSVYKNYLSWYQQKPGQPPKLLIYGASTLASGVPSRFKGSGSGTQFTLTISDVQCDDAATYYCAGGYRGSSDIFAFGGGTEVVVK
B2: BC-E2 (Fab) (Fab, V domains shown)
VH: QEQLKESGGRLVTPGAPLTLTCTVSRFSLSSYAMTWVRQAPGKGLEWIGIINNDGISSTWYASWVKGRFTISKTSTTMDLKMTSLTTEDTATYFCARGGTSGYDIWGPGTLVTVSL
VL: AVVLTQTPSPVSAAVGGTVTINCQSSPSVYKNYLSWYQQKPGQPPKLLIYKASTLASGVPSRFKGSGSGTQFTLTISDVQCDDAATYYCAGGYRGSSDIFAFGGGTEVVVK
B3: SC-D1 (Fab) (Fab, V domains shown)
VH: QSLEESRGRLVTPGGSLTLTCTVSGFSLSSYAMTWVRQAPGKGLEWIGIINNDGVSSTWYASWVKGRFTISKTSTTMDLKMTSLTTEDTATYFCARGGTSGYDIWGPGTLVTVSL
VL: DPMMTQTPSPVSAAVGGTVTINCQSSPSVYKNYLSWYQQKPGQPPKLLIYGASTLASGVPSRFKGSGSGTQFTLTISGVQCDDAATYYCAGGYRGSSDIFAFGGGTEVVVK
B4: BC-H4 (Fab) (Fab, V domains shown)
VH: QQLKESGGRLVTPGAPLTLTCTVSRFSLSSYAMTWVRQAPGKGLEWIGIINNDGVSSTWYASWVKGRFTISKTSTTMDLKMTSLTTEDTATYFCARGGTSGYDIWGPGTLVTVSS
VL: ALVLTQTPSPVSAAVGGTVTINCQSSPSVYKNYLSWYQQKPGQPPKLLIYGASTLASGVPSRFKGSGSGTQFTLTISDVQCDDAATYYCAGGYRGSGDIFAFGGGTEVVVK
B5: SC-D10 (Fab) (Fab, V domains shown)
VH: QSVKESGGRLVTPGGSLTLTCTVSRFSLSSYAMTWVRQAPGKGLEWIGIINNDGVSSTWYASWVKGRFTISKTSTTMDLKMTSLTTEDTATYFCARGGTSGYDIWGPGTLVTVSL
VL: ALVMTQTPSPVSAAVGGTVTTNCQSSPSVYKNYLSWYQQKPGQPPKLLIYKASTLASGVPSRFSGSGSGTQFTLTISDVQCDDAATYYCAGGYRGSSDIFAFGGGTEVVVK
B6: BC-B4 (Fab) (Fab, V domains shown)
VH: QSVEESGGRLVTPGGSLTLTCTVSRFSLSSYAMTWVRQAPGKGLEWIGIINNDGISSTWYASWVKGRFTISKTSTTMDLKMTSLTTEDTATYFCARGGTSGYDIWGPGTVVTVSL
VL: ALVLTQTPSPVSAAVGGTVTINCQSSQSVYKNYLSWYQQKPGQPPKLLIYGASTLASGVPSRFKGSGSGTQFTLTISDVQCDDAATYYCAGGYRGSGDIFAFGGGTEVVVK
B7: BC-A3 (Fab) (Fab, V domains shown)
VH: QTVKESGGRLVTPGAPLTLTCTVSRFSLSSYAMTWVRQAPGKGLEWIGIINNDGVSSTWYASWVKGRFTISKTSTTMDLKMTSLTTEDTATYFCARGGTSGYDIWGPGTLVTVSL
VL: AQVLTQTPASVSAAVRGTVTINCQSSPSVYKNYLSWYQQKSGQPPKLLIYGASTLASGVPSRFKGSGSGTQFTLTISDVQCDDAATYYCAGGYRGSSDIFAFGGGTEVVVK
B8: BC-E1 (Fab) (Fab, V domains shown)
VH: QSVKESGGRLVAPGTPLTLTCAVSGFSLSSYAMTWVRQAPGKGLEWIGIINNDGRSSTWYASWVKGRFTISKTSTTMDLKMTSPTTEDTATYFCARGGTSGYDIWGPGTLVTVSL
VL: AQGMTQTPSPVSAAVGGTVTINCQSSPSVYKNYLSWYQQKPGQPPKLLIYGASTLASGVPSRFKGSGSGTRFTLTISDVQCDDAATYYCAGGYRGSSDIFAFGGGTEVVVK
B9: BC-F7 (Fab) (Fab, V domains shown)
VH: QSVEESGGRLVTPGGSLTLTCTVSRFSLSSYAMTWVRQAPGKGLEWIGIINNDGISSTWYASWVKGRFTISKTSTTMDLKMTSLTTEDTATYFCARGGTSGYDIWGPGTVVTVSL
VL: ALVLTQTPSPVSAAVGGTVTINCQSSQSVYKNYLSWYQQKPGQPPKLLIYGASTLASGVPSRFKGSGSGTQFTLTISDVQCDDAATYYCAGGYRGSGDIFAFGGGTEVVVK
B10: SC-F6 (Fab) (Fab, V domains shown)
VH: QSVKESGGRLVTPGAPLTLTCTVSRFSLSSYAMTWVRQAPGKGLEWIGIINNDGISSTWYASWVKGRFTISKTSTTMDLKMTSLTTEDTATYFCARGGTSGYDIWGPGTLVTVSL
VL: AQGMTQTPASVSAAVGGTVTINCQSSPSVYKNYLSWYQQKSGQPPKLLIYGASTLASGVPSRFKGSGSGTQFTLTISDVQCDDAATYYCAGGYRGSSDIFAFGGGTEVVVK
B11: BC-F2 (Fab) (Fab, V domains shown)
VH: QSVKESGGRLVAPGTPLTLTCAVSGFSLSSYAMTWVRQAPGKGLEWIGIINNDGRSSTWYASWVKGRFTISKTSTTMDLKMTSPTTEDTATYFCARGGTSGYDIWGPGTLVTVSL
VL: AQGMTQTPSPVSAAVGGTVTINCQSSPSVYKNYLSWYQQKPGQPPKLLIYGASTLASGVPSRFKGSGSGTRFTLTISDVQCDDAATYYCAGGYRGSSDIFAFGGGTEVVVK
B12: SC-B2 (Fab) (Fab, V domains shown)
VH: QEQLMESRGRLVTPGGSLTLTCTVSRFSLSNYAMTWVRQAPGKGLEWIGIINNDGISSTWYASWVKGRFTISKTSTTMDLKMTSLTTEDTATYFCARGGTSGYDIWGPGTLVTVSL
VL: AQGPTQTPSPVSAAVGGTVTINCQSSPSVYKNYLSWYQQKPGQPPKLLIYGASTLASGVPSRFKGSGSGTQFTLTISDVQCDDAATYYCAGGYRGSGDIFAFGGGTEVVVK
B13: BC-C8 (Fab) (Fab, V domains shown)
VH: QSLEESGGRLVTPGGSLTLTCTVSRFSLSSYAMTWVRQAPGKGLEWIGIINNDGISSTWYASWVKGRFTISKTSTTMDLKMTSLTTEDTATYFCARGGTSGYDIWGPGTVVTVSL
VL: ALVLTQTPSPVSAAVGGTVTINCQSSPSVYKNYLSWYQQKPGQPPKLLIYGASTLASGVPSRFKGSGSGTQFTLTISDVQCDDAATYYCAGGYRGSSDIFAFGGGTEVVVK
B14: SC-H10 (Fab) (Fab, V domains shown)
VH: QSLEESGGRLVTPGAPLTLTCTVSRFSLSSYAMTWVRQAPGKGLEWIGIINNDGISSTWYASWVKGRFTISKTSTTMDLKMTSLTTEDTATYFCARGGTSGYDIWGPGTLVTVSL
VL: AQGLTQTPSPVSAAVGGTVTINCQSSPSVYKNYLSWYQQKPGQPPKLLIYGASTLASGVPSRFSGSGSGTQFTLTISDVQCDDAATYYCAGGYRGSSDIFAFGGGTEVVVK
B15: BC-A9 (Fab) (Fab, V domains shown)
VH: QSVEESGGRLVTPGGSLTLTCTVSRFSLSSYAMTWVRQAPGKGLEWIGIINNDGISSTWYASWVKGRFTISKTSTTMDLKMTSLTTEDTATYFCARGGTSGYDIWGPGTVVTVSL
VL: AQGLTQTPASVSAAVGGTVTINCQSSPSVYKNYLSWYQQKSGQPPKLLIYGASTLASGAPSRFKGSGSGTQFTLTISDVQCDDAATYYCAGGYRGSSDIFAFGGGTEVVVK
B16: BC-E4 (Fab) (Fab, V domains shown)
VH: QSVKESGGRLVAPGTPLTLTCAVSGFSLSSYAMTWVRQAPGKGLEWIGIINNDGRSSTWYASWVKGRFTISKTSTTMDLKMTSPTTEDTATYFCARGGTSGYDIWGPGTLVTVSL
VL: AQGMTQTPSPVSAAVGGTVTINCQSSPSVYKNYLSWYQQKPGQPPKLLIYGASTLASGVPSRFKGSGSGTRFTLTISDVQCDDAATYYCAGGYRGSSDIFAFGGGTEVVVK
B17: BC-G6 (Fab) (Fab, V domains shown)
VH: QSVEESGGRLVTPGGSLTLTCTASGFSLSGYAMTWVRQAPGKGLEWIGIINNDGISSTWYASWVKGRFTISKTSTTMDLKMTSLTTEDTATYFCARGGTSGYDIWGPGTLVTVSL
VL: ALVMTQTPSPVSAAVGGTVTINCQSSPSVYKNYLSWYQQKPGQPPKLLIYGASTLASGVPSRFKGSGSGTQFTLTISDVQCDDAATYYCAGGYRGSSDIFAFGGGTEVVVK
B18: SC-G8 (Fab) (Fab, V domains shown)
VH: QSVEESGGRLVMPGGSLTLTCTASGFSLSSYAMTWVRQAPGKGLEWIGIINNDGSGSTWYASWVKGRFTISKTSTTMDLKMTSLTTEDTATYFCARGGTSGYDIWGPGTLVTVSL
VL: AAVLTQTPSPVSAAVGGTVTINCQSSPSVYKNYLSWYQQKPGQPPKLLIYKASTLASGVPSRFKGSGSGTQFTLTISDVQCDDAATYYCAGGYRGYSDIFAFGGGTEVVVK
B19: BC-E11 (Fab) (Fab, V domains shown)
VH: QSVKESGGRLVAPGTPLTLTCAVSGFSLSSYAMTWVRQAPGKGLEWIGIINNDGRSSTWYASWVKGRFTISKTSTTMDLKMTSPTTEDTATYFCARGGTSGYDIWGPGTLVTVSL
VL: AQGMTQTPSPVSAAVGGTVTINCQSSPSVYKNYLSWYQQKPGQPPKLLIYGASTLASGVPSRFKGSGSGTRFTLTISDVQCDDAATYYCAGGYRGSSDIFAFGGGTEVVVK
B20: BC-E3 (Fab) (Fab, V domains shown)
VH: QSVKESGGRLVAPGTPLTLTCAVSGFSLSSYAMTWVRQAPGKGLEWIGIINNDGRSSTWYASWVKGRFTISKTSTTMDLKMTSPTTEDTATYFCARGGTSGYDIWGPGTLVTVSL
VL: AQGMTQTPSPVSAAVGGTVTINCQSSPSVYKNYLSWYQQKPGQPPKLLIYGASTLASGVPSRFKGSGSGTRFTLTISDVQCDDAATYYCAGGYRGSSDIFAFGGGTEVVVK
B21: SC-C7 (Fab) (Fab, V domains shown)
VH: QTVKESGGRLVTPGAPLTLTCTVSRFSLSGYAMTWVRQAPGKGLEWIGIINNDISGSTWYASWVKGRFTISKTSTTMDLKMTSLTTEDTATYFCARGGTSGYDIWGPGTLVTVSS
VL: DVVMTQTPSPVSAAVGGTVTINCQSSPSVYKNYLSWYQQKPGQPPKLLIYGASTLASGVPSRFKGSGSGTQFTLTISDVQCDDAATYYCAGGYRGSSDIFAFGGGTEVVVK

Target: T1, oligopeptide ATYPSGHLDM (SEQ ID NO: 1) (human and mouse)
T1 construct: Synthetic peptide; positions 148 to 157 of the human AQP3 polypeptide, identical in mouse; also called peptide used for immunization; oligopeptide 5
T1 peptide: ATYPSGHLDM
Experiment: ELISA on peptide, Fab

Binding result, binds:
B1
B2
B3
B4
B5
B6
B7
B8
B9
B10
B11
B12
B13
B14
B15
B16
B17
B18
B19
B20
B21
